Test results as given in patent publication US20220127350A1 (NUMAB THERAPEUTICS, published 2022).
Positions count from the first letter of the chain named. Each block holds one binder with its values, some of them ahead of it.

What was measured:
human IL-17A [1] = molecular target: T1, human IL-17A (human, UniProt Q16552 24-155); assay: SPR (Biacore T200), capture setup: biotinylated IL-17A captured, scFv as analyte
T1 construct: Recombinant human IL-17A (Peprotech Cat. No. 200-17), disulfide-linked homodimer from E. coli; Biotinylated or RPE-labelled in some assays; also called hIL-17A; IL-17A-RPE (labelled)
Description: (§1) After each analyte injection cycle the CAP sensor chip was regenerated and new antigen was captured. The scFvs were injected as analyte using a dose response multi-cycle kinetic assay with concentrations of the analyte ranging from 0.35 to 90 nM diluted in running buffer. Obtained sensorgrams were fitted using the 1:1 binding model. In addition, the scFvs were analyzed in an alternative SPR assay setup (“direct setup”).

human IL-17B [2] = molecular target: T2, human IL-17B (human, UniProt Q9UHF5 21-180); assay: competition ELISA: scFv PRO571 coated, binding of biotinylated IL-17A detected, unlabeled IL-17B titrated as competitor [II) B]
T2 sequence: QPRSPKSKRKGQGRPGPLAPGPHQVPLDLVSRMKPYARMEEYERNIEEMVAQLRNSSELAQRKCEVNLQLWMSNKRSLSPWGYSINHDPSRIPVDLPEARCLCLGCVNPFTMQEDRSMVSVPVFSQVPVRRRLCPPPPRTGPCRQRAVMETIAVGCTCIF
Excerpt: (§2) For this purpose, the scFvs were coated on a 96-well ELISA plate.

human IL-17A [3] = molecular target: T1, human IL-17A; assay: SPR (Biacore T200), direct setup: IL-17A amine-coupled on CM5, scFv as analyte
Description: as §1

cynomolgus monkey IL-17A [4] = molecular target: T3, cynomolgus monkey IL-17A (Macaca fascicularis (cynomolgus monkey)); assay: SPR (Biacore T200), cynomolgus IL-17A, scFv as analyte
T3 construct: also called cyno IL-17A; cyno IL17A
Description: as §1

cynomolgus monkey IL-17A [5] = molecular target: T3, cynomolgus monkey IL-17A; assay: SPR (Biacore T200)
Description: as §1

human IL-17E [6] = molecular target: T4, human IL-17E (human, UniProt Q9H293 33-177); assay: competition ELISA: scFv PRO571 coated, binding of biotinylated IL-17A detected, unlabeled IL-17E titrated as competitor [II) A]
T4 construct: also called IL-25
T4 sequence: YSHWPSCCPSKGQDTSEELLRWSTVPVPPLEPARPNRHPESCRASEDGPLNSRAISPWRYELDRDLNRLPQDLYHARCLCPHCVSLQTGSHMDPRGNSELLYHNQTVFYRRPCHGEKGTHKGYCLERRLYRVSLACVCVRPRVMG
Excerpt: as §2

human IL-17C [7] = molecular target: T5, human IL-17C (human, UniProt Q9P0M4 19-197); assay: competition ELISA: scFv coated, biotinylated IL-17A, unlabeled cytokine titrated
T5 sequence: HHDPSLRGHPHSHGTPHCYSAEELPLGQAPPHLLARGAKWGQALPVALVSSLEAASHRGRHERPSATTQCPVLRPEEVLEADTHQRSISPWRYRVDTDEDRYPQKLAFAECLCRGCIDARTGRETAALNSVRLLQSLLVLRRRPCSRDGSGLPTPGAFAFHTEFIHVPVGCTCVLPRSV
Excerpt: as §2

human IL-17F [8] = molecular target: T6, human IL-17F (human, UniProt Q96PD4 31-163); assay: as above
T6 construct: Peprotech Cat. No. 200-25 in the direct ELISA
T6 sequence: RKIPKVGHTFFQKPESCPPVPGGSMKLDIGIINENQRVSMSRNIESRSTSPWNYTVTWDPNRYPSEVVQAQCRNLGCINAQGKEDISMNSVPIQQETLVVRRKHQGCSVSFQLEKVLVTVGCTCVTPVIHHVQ
Excerpt: as §2

human IL-17D [9] = molecular target: T7, human IL-17D (human, UniProt Q8TAD2 16-202, limits assumed); assay: competition ELISA: scFv PRO571 coated, binding of biotinylated IL-17A detected, unlabeled IL-17D titrated as competitor [II) A]
T7 sequence: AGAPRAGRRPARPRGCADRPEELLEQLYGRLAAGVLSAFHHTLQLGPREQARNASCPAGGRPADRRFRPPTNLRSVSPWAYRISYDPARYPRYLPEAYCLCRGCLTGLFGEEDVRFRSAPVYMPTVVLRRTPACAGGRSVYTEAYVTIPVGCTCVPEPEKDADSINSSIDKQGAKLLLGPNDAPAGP
Excerpt: as §2

human IL-17A [10] = molecular target: T1, human IL-17A; assay: cell-based or functional assay
human IL-17A [11] = molecular target: T1, human IL-17A; assay: competitive ELISA: IL-17RA coated, biotinylated IL-17A preincubated with scFv
Description: Finally, Tetramethylbenzidin solution (KPL, Cat. No. 53-00-00) was added to develop the plate for 5 to 10 minutes and the reaction was stopped with 1 M HCl. The plate was read using a microtiter plate reader (Infinity reader M200 Pro, Tecan) at a wavelength of 450 nm and 570 nm (reference wavelength).

human IL-17B [12] = molecular target: T2, human IL-17B; assay: competition ELISA: scFv PRO592 coated, binding of biotinylated IL-17A detected, unlabeled IL-17B titrated as competitor [II) D]
Excerpt: as §2

human IL-17E [13] = molecular target: T4, human IL-17E; assay: competition ELISA: scFv PRO592 coated, binding of biotinylated IL-17A detected, unlabeled IL-17E titrated as competitor [II) C]
Excerpt: as §2

human IL-17F [14] = molecular target: T6, human IL-17F; assay: competition ELISA: scFv PRO592 coated, binding of biotinylated IL-17A detected, unlabeled IL-17F titrated as competitor [II) C]
Excerpt: as §2

human IL-17D [15] = molecular target: T7, human IL-17D; assay: competition ELISA: scFv PRO592 coated, binding of biotinylated IL-17A detected, unlabeled IL-17D titrated as competitor [II) C]
Excerpt: as §2

human IL-17C [16] = molecular target: T5, human IL-17C; assay: competition ELISA: scFv PRO592 coated, binding of biotinylated IL-17A detected, unlabeled IL-17C titrated as competitor [II) D]
Excerpt: as §2

- Kd (human IL-17A [1]): 0.119 nM
- koff (human IL-17A [1]): 0.000144 s⁻¹
- kon (human IL-17A [1]): 1.21e+06 M⁻¹ s⁻¹
- binding result (human IL-17B [2]): no binding (tested: about 100000 ng/mL)
- Kd (human IL-17A [3]): 0.0403 nM
- koff (human IL-17A [3]): 4.55e-05 s⁻¹
- kon (human IL-17A [3]): 1.13e+06 M⁻¹ s⁻¹
- Kd (cynomolgus monkey IL-17A [4]): 0.0331 nM
- koff (cynomolgus monkey IL-17A [4]): 3.88e-05 s⁻¹
- kon (cynomolgus monkey IL-17A [4]): 1.17e+06 M⁻¹ s⁻¹
- KD, cyno/KD, human (cynomolgus monkey IL-17A [5]): 0.28
- binding result (human IL-17E [6]): no binding (tested: about 20000 ng/mL)
- binding result (human IL-17C [7]): no binding (tested: 100000 ng/ml)
- binding result (human IL-17F [8]): no binding (tested: 20000 ng/ml)
- binding result (human IL-17D [9]): no binding (tested: about 500000 ng/mL)
- IC50 in HT-29 assay, GRO-α secretion (human IL-17A [10]): 0.1 ng/mL
- IC50 (human IL-17A [11]): 1.8 ng/mL
B1: PRO571 (humanized anti-IL-17A scFv, CDR graft of 27-31-C04) (scFv)
scFv: DIQMTQSPSSLSASVGDRVTITCQASESIYRYLSWYQQKPGKAPKLLIYLASTLTSGVPSRFSGSGSGTDFTLTISSLQPEDFATYYCQSNFGTASTTYYNTFGGGTKLTVLGGGGGSGGGGSGGGGSGGGGSEVQLVESGGGLVQPGGSLRLSCAASGFSFSGFYYMCWVRQAPGKGLEWIGCIDTGDGTTYYASWAKGRFTISRDNSKNTVYLQMNSLRAEDTAVYYCARDAAYGGYAYPAHGMDLWGQGTLVTVSS
notes: VL-linker-VH; also called 27-31-C04-sc01; 27_31_C04_sc01

- Kd (human IL-17A [1]): 0.367 nM
- koff (human IL-17A [1]): 0.000142 s⁻¹
- kon (human IL-17A [1]): 387000 M⁻¹ s⁻¹
- binding result (human IL-17B [12]): no binding (tested: about 100000 ng/mL)
- Kd (human IL-17A [3]): 0.0376 nM
- koff (human IL-17A [3]): 4.07e-05 s⁻¹
- kon (human IL-17A [3]): 1.08e+06 M⁻¹ s⁻¹
- Kd (cynomolgus monkey IL-17A [4]): 0.16 nM
- koff (cynomolgus monkey IL-17A [4]): 5.38e-05 s⁻¹
- kon (cynomolgus monkey IL-17A [4]): 336000 M⁻¹ s⁻¹
- binding result (human IL-17E [13]): no binding (tested: about 20000 ng/mL)
- KD, cyno/KD, human (cynomolgus monkey IL-17A [5]): 0.44
- binding result (human IL-17F [14]): no binding (tested: about 20000 ng/mL)
- binding result (human IL-17D [15]): no binding (tested: about 500000 ng/mL)
- binding result (human IL-17C [16]): no binding (tested: about 100000 ng/mL)
- IC50 in HT-29 assay, GRO-α secretion (human IL-17A [10]): 0.13 ng/mL
- IC50 (human IL-17A [11]): 0.9 ng/mL
B2: PRO592 (humanized anti-IL-17A scFv, STR graft of 27-31-C04) (scFv)
scFv: B1 scFv with R152T, Q251P
notes: VL-linker-VH; also called 27-31-C04-sc02; 27_31_C04_sc02
